Measurements published in patent US20130078720, “METHOD FOR INDUCING PLURIPOTENCY IN HUMAN SOMATIC CELLS WITH PRDM14 OR NFRKB” (Agency for Science, Technology and Research, published 2013).

Molecular target: T1, PRDM14 DNA binding domain (C-terminal 179 aa) (Homo sapiens, UniProt Q9GZV8 SEQ:393-571)
T1 sequence: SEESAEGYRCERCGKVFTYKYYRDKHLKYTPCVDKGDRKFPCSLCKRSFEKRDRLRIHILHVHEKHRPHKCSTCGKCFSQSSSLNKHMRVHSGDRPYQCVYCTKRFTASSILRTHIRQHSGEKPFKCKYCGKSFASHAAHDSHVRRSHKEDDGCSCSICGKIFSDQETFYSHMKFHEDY
Assay: EMSA; 100 ng protein, 1 ng probe, poly(dI-dC), 10 mM ZnCl2, 60 mM KCl, pH 7.9, room temperature
Details: tags: His tag, pET42b, E. coli BL21; label: 5' biotin on sense strand
Description: Recombinant PRDM14 DNA binding domain (His tagged) was used in the gel shift assays. Briefly, a cDNA encoding 179 amino acids of the C terminus of PRDM14 was cloned into the pET42b (Novagen) vector using cloning sites NdeI and XhoI. The fusion construct was transformed into BL21 competent cells (Strategene) according to the supplier's instructions. Purified proteins were dialyzed against a dialysis buffer (10 mM Tris-HCl, pH 7.4, 100 mM NaCl, 10 mM ZnCl₂ and 10% glycerol) at 4° C. for 6 hr. Oligonucleotides (Proligo) labeled with biotin at the 5′ end of the sense strands were annealed with the antisense strands in the annealing buffer (10 mM Tris-HCl, pH8.0, 50 mM NaCl, 1 mM EDTA) and purified with agarose gel DNA extraction kit (Qiagen). DNA concentrations were determined by the NanoDrop ND-1000 spectrophotometer. The gel shift assays were performed using a LightShift Chemiluminescent EMSA kit (Pierce Biotechnologies). 100 ng of protein was added to a 5 μl reaction mixture (final) containing 1 μg of poly(dI-dC) (Amersham), 1 ng of biotin-labeled oligonucleotide in the binding buffer (12 mM HEPES, pH7.9, 10% glycerol, 60 mM KCl, 0.25 mM EDTA, 1 mM DTT, 10 mM ZnCl₂). Binding reaction mixtures were incubated for 20 min at room temperature. […] Gels were transferred to Biodyne B nylon membranes (Pierce Biotechnologies) using western blot techniques and detected using chemiluminescence.

B1: CR2 probe (dsDNA)
DNA 1: CAGCTCTAACCCTAAACAAGTGCTCAACCCTTGAATGGGCCTGGATGGCT
DNA 2: AGCCATCCAGGCCCATTCAAGGGTTGAGCACTTGTTTAGGGTTAGAGCTG
binding result: binds
